Data: the supplement of paper PMC11780869

System: Bacillus subtilis
Experiment: cleaved RNA product abundance (RNA/gDNA barcode ratio) relative to median wild-type variant (ratio to wild type); higher = more accumulation of the downstream cleavage product
Procedure, shortened: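 In LB at 37°C, B. subtilis cultures went from OD600 0.0003 to 0.3. Their chromosomes held barcoded reporter mRNAs, truncated aprE or tetM, with RNase Y cleavage-site windows mutagenized via oligos at a 9% error rate. Cleaved RNA, chosen by gel, was reverse transcribed and barcode-sequenced alongside genomic DNA barcodes with UMI collapsing, giving a per-construct RNA:gDNA ratio scaled to the median construct with the unmutated site. This scaled ratio is termed cleaved product abundance.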

[1] = experiment (reporter, strain, medium): exp 8a: truncated aprE reporter, strain BJT201 with 2% xylose (RNase J1 expressed), cleavage site: glnRA (positions -5 to +31 mutated)
[2] = experiment (reporter, strain, medium): exp 4a: truncated aprE reporter, strain BJT201 with 2% xylose (RNase J1 expressed), cleavage site: cggR-gapA (positions -7 to +36 mutated)
[3] = experiment (reporter, strain, medium): exp 2b: truncated aprE reporter, strain BJT200, cleavage site: cggR-gapA (positions -7 to +36 mutated)

Sequence | cleaved RNA product abundance [1] | cleaved RNA product abundance [2] | further results
CGACATGTCCCGCTTCTTTCATTATTCCGTTAGCAACTGTTTTGCTATATACATTGACCTTTTAAGAGGAGGAAT | 1.55 |  | 
CGACATGTCCCGCTTCTTTCATTAATCCGTTAGCAACGGTTTTGATATATACATTTACCTTTTAAGAGGAGGAAT | 0.515 |  | 
ACAGACGAAGGAGCCGCAAAGAAGTTAATAAGGGATGTATAATCCCTCAATATAAATATCTCTCACTTATTTAAA |  | 0.322 | 
ACAGACGAAGGAGCCGCAAAGAAGTTATTAAGTGATGAATAATCCCTCATTATAAATATCTCTCACTTATTTAAA |  | 0.151 | cleaved RNA product abundance [3]: 0.0978
ACAGACGAAGGAGCCGCAAAGAAGTTATTAAGGGATCAATAAACCCTCAATATAAATATCTCTCACTTATTTAAA |  | 0.429 | cleaved RNA product abundance [3]: 0.518
CGACATGTCCCGCTTCTTTCATTAATCCGTTAGCAACTGTTTTGCTATATATATATACCTTTTAAGAGGAGGAAT | 1.12 |  | 
ACAGACGAAGGAGCCGCAAAGAAGTTATTAAAGGATGAATAATCCCTCAATATAAATATTTCTCACTTATTTAAA |  | 0.247 | 
ACAGACGAAGGAGCCGCAAAGACGTTATTAAAGGATGAATAATCCCTCAATATAAATATCTCTCACTTATTTAAA |  | 0.181 | 
ACAGACGAAGGAGCCGCAAAGAAGTTATTAAGGGACGAATAATCCTTCAATATAAATATCTCTCACTTATTTAAA |  | 0.217 | cleaved RNA product abundance [3]: 0.146
ACAGACGAAGGAGCCGCAAAGAAGTTATTACGGGATGAATAATCCCTCAATATAAATATTTCTCACTTATTTAAA |  | 0.399 | 
ACAGACGAAGGAGCCGCAAAGAAGTTATTAAGGGATCAATAATCCTTCAATATAAATATCTCTCACTTATTTAAA |  | 0.353 | 
CGACATGTCCCGCTTCTTTCATTAATACGTTAGCAACTGTTTTGCTACATACATTTACCTTTTAAGAGGAGGAAT | 0.381 |  | 
CGACATGTCCCGCTTCTTTCATTAATCCGTTACCAACTGTTTTGCTATATACATTTTCCTTTTAAGAGGAGGAAT | 0.231 |  | 
ACAGACGAAGGAGCCGCAAAGAAGTTATTTAGGGATAAATAATCCCTCAATATAAATATCTCTCACTTATTTAAA |  | 0.696 | cleaved RNA product abundance [3]: 0.577
ACAGACGAAGGAGCCGCTAAGAAGTTATTAAGGGAAGAATAATCCCTCAATATAAATATCTCTCACTTATTTAAA |  | 0.638 | 
ACAGACGAAGGAGCCGCAAAGAAGTTATTAAGAGAGGAATAATCCCTCAATATAAATATCTCTCACTTATTTAAA |  | 0.199 | 
ACAGACGAAGGAGCCGCAAACAAGTTATTAAGGGATGAATAATCCCTCAATATACATATCTCTCACTTATTTAAA |  | 0.536 | cleaved RNA product abundance [3]: 0.644
ACAGACGAAGGAGCCGCAAAGAAATTATTAAGGGATGAATTATCCCTCAATATAAATATCTCTCACTTATTTAAA |  | 0.711 | cleaved RNA product abundance [3]: 0.539
CGACATGTCCCGCTTCTTTCATTAATCCGTTAGCATCTGATTTGCTATATACATTTACCTTTTAAGAGGAGGAAT | 1.34 |  | 
ACAGACGAAGGAGCCGCAAAGAAGTTATTAAGGGCTGAATAATCCCTAAATATAAATATCTCTCACTTATTTAAA |  | 0.537 | 
ACAGACGAAGGAGCCGCAAAGAAGTTATTAAGGGACGAATAATCACTCAATATAAATATCTCTCACTTATTTAAA |  | 0.0856 | 
ACAGACGAAGGAGCCGCAAAGAAATTATTAAGGGATGAATAATCCCTCAACATAAATATCTCTCACTTATTTAAA |  | 0.234 | 
ACAGACGAAGGAGCCGCAATGAAGTTATTAAGGGATGAATAATCCCTCTATATAAATATCTCTCACTTATTTAAA |  | 0.689 | 
CGACATGTCCCGCTTCTTTCATTAATCCGTTAGCACCTGTTTTGCTATATATATTTACCTTTTAAGAGGAGGAAT | 1.44 |  | 
CGACATGTCCCGCTTCTTTCATTAATCCCTTAGCAACTGTTTTGCTATATACATTTACCTTTTAAGAGGAGGAAT | 0.213 |  | 
CGACATGTCCCGCTTCTTTCATTACACCGTTAGCAACTGTTTTGCTATATACATTTACCTTTTAAGAGGAGGAAT | 1.39 |  | 
CGACATGTCCCGCTTCTTTCATTAATCCATTAACAACTGTTTTGCTATATACATTTACCTTTTAAGAGGAGGAAT | 0.198 |  | 

Sequence | cleaved RNA product abundance [1] | cleaved RNA product abundance [2] | further results
ACAGACGAAGGAGCCGCAATGAAGTTATTAAGGGATAAATAATCCCTCAATATAAATATCTCTCACTTATTTAAA |  | 0.659 | 
ACAGACGAAGGAGCCGCAAAGAAGTTATTAAGGGATTAATAATCTCTCAATATAAATATCTCTCACTTATTTAAA |  |  | cleaved RNA product abundance [3]: 0.716
CGACATGTCCCGCTTCTTTCATTAATCCGTTAGCAACTGTTTTGTGATATACATTTACCTTTTAAGAGGAGGAAT | 0.344 |  | 
ACAGACGAAGGAGCCGCAAAGAAGTTATTAAGGGATGAATAATCCCTCAATATAAATATTTCTCACTTATTTAAA |  | 0.864 | cleaved RNA product abundance [3]: 1
CGACATGTCCCGCTTCTTTCATTAATCCGTTAGCAACTGTGTTGTTATATACATTTACCTTTTAAGAGGAGGAAT | 1.01 |  | 
CGACATGTCCCGCTTCTTTCATTAATCCGTTAGCAACTGTTTTCCTATATACGTTTACCTTTTAAGAGGAGGAAT | 0.26 |  | 
CGACATGTCCCGCTTCTTTCATTAATCCGTTAGCAAGTGTTTTACTATATACATTTACCTTTTAAGAGGAGGAAT | 0.824 |  | 
ACAGACGAAGGAGCCGCAAAGAAGTTATTAAGGGATGAATAAACCCTCAATATAAATATCTCTCACTTATTTAAA |  | 0.52 | cleaved RNA product abundance [3]: 0.443; cleaved RNA product abundance (experiment (reporter, strain, medium): exp 6: tetM reporter, strain 168, cleavage site: cggR-gapA (positions -7 to +36 mutated)): 0.578
ACAGACGAAGGAGCCGCAAGGAAGTTATTAAGGGACGAATAATCCCTCAATATAAATATCTCTCACTTATTTAAA |  | 0.614 | 
ACAGACGAAGGAGCCGCAAAGAAGTTATTAAGGGGTGAATAATCCGTCAATATAAATATCTCTCACTTATTTAAA |  | 0.0683 | cleaved RNA product abundance [3]: 0.159
CGACATGTCCCGCTTCTTTCATTATTCCGTTAGCAACTGTTTTGCTATATACAGTTACCTTTTAAGAGGAGGAAT | 0.649 |  | 
ACAGACGAAGGAGCCGCAAAGAAGTTATTAAGAGATGAATAATCCCGCAATATAAATATCTCTCACTTATTTAAA |  | 0.154 | 
ACAGACGAAGGAGCCGCAAACAAGTTACTAAGGGATGAATAATCCCTCAATATAAATATCTCTCACTTATTTAAA |  |  | cleaved RNA product abundance [3]: 0.169
ACAGACGAAGGAGCCGCAAAGAAGTTATTAAGGGATGAATAATCACACAATATAAATATCTCTCACTTATTTAAA |  | 0.142 | cleaved RNA product abundance [3]: 0.114
CGACATGTCCCGCTTCTTTCATTATTCCGTTAGCAACTGTTTTGATATATACATTTACCTTTTAAGAGGAGGAAT | 0.502 |  | 
ACAGACGAAGGAGCCGCAAAGAAGTTATTAAGGGATAAATAATCCCTCAATATACATATCTCTCACTTATTTAAA |  | 0.699 | 
ACAGACGAAGGAGCCGCAATGAAGTTATTAAGGGATGAATAATCCCTCAAAATAAATATCTCTCACTTATTTAAA |  | 0.355 | 
ACAGACGAAGGAGCCGCAAAGAAGTTATTAAGAAATGAATAATCCCTCAATATAAATATCTCTCACTTATTTAAA |  | 0.1 | cleaved RNA product abundance [3]: 0.0992
CGACATGTCCCGCTTCTTTCATTAATACATTAGCAACTGTTTTGCTATATACATTTACCTTTTAAGAGGAGGAAT | 0.748 |  | 
CGACATGTCCCGCTTCTTTCATTAATCCGTTAGCAACTGTGTTGCTATATACATTTACCGTTTAAGAGGAGGAAT | 0.537 |  | 
CGACATGTCCCGCTTCTTTCATTAATCCGTTAGAAACTGTTTTGCTAAATACATTTACCTTTTAAGAGGAGGAAT | 0.241 |  | 
ACAGACGAAGGAGCCGCAAATAAGTTATTAAGGGATGTATAATCCCTCAATATAAATATCTCTCACTTATTTAAA |  | 0.901 | 
CGACATGTCCCGCTTCTTTCATTAATCCATTACCAACTGTTTTGCTATATACATTTACCTTTTAAGAGGAGGAAT | 0.17 |  | 
ACAGACGAAGGAGCCGCAAAGAAGTTATTAAGGGATGACTAATCCTTCAATATAAATATCTCTCACTTATTTAAA |  | 0.251 | 
ACAGACGAAGGAGCCGCAAAGAAGTTATTAAGGCATGAATAATCCCTCTATATAAATATCTCTCACTTATTTAAA |  | 0.0965 | cleaved RNA product abundance [3]: 0.0791
ACAGACGAAGGAGCCGCAAAGAAGTTATTAAGGGAAGAATAATCCCTCAATATGAATATCTCTCACTTATTTAAA |  | 0.0705 | 
ACAGACGAAGGAGCCGCAAAGAAATTATTAAGGGATGAAAAATCCCTCAATATAAATATCTCTCACTTATTTAAA |  | 0.598 | cleaved RNA product abundance [3]: 0.852
